B1: RORg: RAR-related Orphan Receptor γ (NR1F3), cDNA driver (protein, UniProt P51449 1-518, looked up)
Nuclear receptor ROR-gamma: MDRAPQRQHRASRELLAAKKTHTSQIEVIPCKICGDKSSGIHYGVITCEGCKGFFRRSQRCNAAYSCTRQQNCPIDRTSRNRCQHCRLQKCLALGMSRDAVKFGRMSKKQRDSLHAEVQKQLQQRQQQQQEPVVKTPPAGAQGADTLTYTLGLPDGQLPLGSSPDLPEASACPPGLLKASGSGPSYSNNLAKAGLNGASCHLEYSPERGKAEGRESFYSTGSQLTPDRCGLRFEEHRHPGLGELGQGPDSYGSPSFRSTPEAPYASLTEIEHLVQSVCKSYRETCQLRLEDLLRQRSNIFSREEVTGYQRKSMWEMWERCAHHLTEAIQYVVEFAKRLSGFMELCQNDQIVLLKAGAMEVVLVRMCRAYNADNRTVFFEGKYGGMELFRALGCSELISSIFDFSHSLSALHFSEDEIALYTALVLINAHRPGLQEKRKVEQLQYNLELAFHHHLCKTHRQSILAKLPPKGKLRSLCSQHVERLQIFQHLHPIVVQAAFPPLYKELFSTETESPVGLSK
B2: RORa: RAR-related Orphan Receptor α (NR1F1), cDNA driver (protein, UniProt P35398 1-523, looked up)
Nuclear receptor ROR-alpha: MESAPAAPDPAASEPGSSGADAAAGSRETPLNQESARKSEPPAPVRRQSYSSTSRGISVTKKTHTSQIEIIPCKICGDKSSGIHYGVITCEGCKGFFRRSQQSNATYSCPRQKNCLIDRTSRNRCQHCRLQKCLAVGMSRDAVKFGRMSKKQRDSLYAEVQKHRMQQQQRDHQQQPGEAEPLTPTYNISANGLTELHDDLSNYIDGHTPEGSKADSAVSSFYLDIQPSPDQSGLDINGIKPEPICDYTPASGFFPYCSFTNGETSPTVSMAELEHLAQNISKSHLETCQYLREELQQITWQTFLQEEIENYQNKQREVMWQLCAIKITEAIQYVVEFAKRIDGFMELCQNDQIVLLKAGSLEVVFIRMCRAFDSQNNTVYFDGKYASPDVFKSLGCEDFISFVFEFGKSLCSMHLTEDEIALFSAFVLMSADRSWLQEKVKIEKLQQKIQLALQHVLQKNHREDGILTKLICKVSTLRALCGRHTEKLMAFKAIYPDIVRLHFPPLYKELFTSEFEPAMQIDG

Key:
mLeptin promoter = assay: NHR-promoter luciferase screen, mLeptin promoter; type: cell-based, mouse; settings: for Luc. act., normalized to lacZ / Normalized Luc. act., normalized to control: Table 7, mLeptin; for Results of assays of transcription factor (+/- ligand) with mLeptin: Table 6d, luciferase activity relative to control (control = 1.00)
Method: (§1) The use, feasibility, and reproducibility of the functional NHR-promoter screen in a 48-well format have been tested validated. Briefly, there were co-expressed 50 ng of each NHR/NHR homodimer or NHR/RXR heterodimer with 100 ng promoter/luciferase construct and 50 ng of LacZ (as a control for transfection efficiency) in CV-1 cells using Fugene HD (Roche) as a transfection reagent (alternatively or additionally, a CMV-YFP construct can be used as a transfection control). Each of the nuclear hormone receptors that were used in these experiments was cloned into a pcDNA3.1 vector and comprised a C-terminally linked V5H6 tag. Twenty-four hours after transfection, appropriate ligands were added, where applicable, (see Table 5 for various ligands and concentrations and after 48 hrs, samples were assayed for luciferase and LacZ activity. To measure for luciferase activity 15 ul of sample was added to 30 ul of luciferase buffer (20 mM tricine, 1.07 mM MgCarbonate, 2.67 mM MgSulfate, 0.1 mM Naz-EDTA, 5 mM DTT, 5 mM ATP, 0.15 mg/ml CoA, 0.5 mM Luciferin), mixed briefly, and run in a Perkin Elmer Victor 5 luminometer. Thus, the functional NHR-promoter screen was used to observe the transcriptional activity of 29 promoters from various physiological pathways including inflammation, lipid and sugar metabolism, cholesterol transport, xenobiotic metabolism, and circadian rhythm.
(§2) The promoters that facilitate transcription of the indicated gene products that were tested using the protocols described herein are listed in the first row of the table. The nuclear hormone receptors and, where applicable, ligands that were assayed for their transcriptional effects on the promoters are listed in the first column of the table. The data represent the luciferase activity of each sample normalized to both the lacZ activity of that sample and to a control, e.g., no NHR or ligand, as customary in the art. As described previously, these normalizations allow the transcriptional activity of each reporter cell to be compared to other samples.
(§3) Tables 7-40 show the transcriptional effects of the hormone receptors, and, where applicable, ligands (orphan receptors are screened without ligand), on each individual promoter. […] The control data of each table are shown in their last rows.

mGhrelin promoter = assay: NHR-promoter luciferase screen, mGhrelin promoter; type: cell-based, mouse; settings: for Luc. act., normalized to lacZ / Normalized Luc. act., normalized to control: Table 8, mGhrelin; for Results of assays of transcription factor (+/- ligand) with mGhrelin: Table 6d, luciferase activity relative to control (control = 1.00)
Method: as §1, §2, §3

mUCP3 promoter = assay: NHR-promoter luciferase screen, mUCP3 promoter; type: cell-based, mouse; settings: for Normalized Luc. act., normalized to control / Luc. act., normalized to lacZ: mUCP3 promoter reporter; for Normalized Luc. act., normalized to control: HR without or with its ligand, relative to control; for Luc. act., normalized to lacZ: hormone receptor (HR) without or with its ligand; for mUCP3 promoter reporter activity: transcription factor +/- ligand, control = 1.00
Method: as §1, §2, §3

hMDR1 promoter = assay: NHR-promoter luciferase screen, hMDR1 promoter; type: cell-based, human; settings: for Luc. act., normalized to lacZ / Normalized Luc. act., normalized to control: MDR1 promoter, HR/ligand component; for hMDR1 promoter reporter activity: transcription factor +/- ligand, control = 1.00
Method: as §1, §2, §3

hPOMC promoter = assay: NHR-promoter luciferase screen, hPOMC promoter; type: cell-based, human; settings: for Luc. act., normalized to lacZ / Normalized Luc. act., normalized to control: hPOMC promoter, HR/ligand component; for hPOMC promoter reporter activity: transcription factor +/- ligand, control = 1.00
Method: as §1, §2, §3

Molecule | Luc. act., normalized to lacZ (mLeptin promoter) | Normalized Luc. act., normalized to control (mLeptin promoter) | Results of assays of transcription factor (+/- ligand) with mLeptin (mLeptin promoter) | Luc. act., normalized to lacZ (mGhrelin promoter) | Normalized Luc. act., normalized to control (mGhrelin promoter) | Results of assays of transcription factor (+/- ligand) with mGhrelin (mGhrelin promoter) | Normalized Luc. act., normalized to control (mUCP3 promoter) | Luc. act., normalized to lacZ (mUCP3 promoter) | mUCP3 promoter reporter activity (mUCP3 promoter) | Luc. act., normalized to lacZ (hMDR1 promoter) | Normalized Luc. act., normalized to control (hMDR1 promoter) | hMDR1 promoter reporter activity (hMDR1 promoter) | Luc. act., normalized to lacZ (hPOMC promoter) | Normalized Luc. act., normalized to control (hPOMC promoter) | hPOMC promoter reporter activity (hPOMC promoter)
B1 | 2.6 | 0.9 | 0.87 | 109.2 | 2.1 | 2.09 | 2.4 | 1.6 | 2.38 | 0.2 | 0.5 | 0.54 | 2.1 | 0.5 | 0.50
B2 | 2.1 | 0.7 | 0.71 | 46.6 | 0.9 | 0.89 | 2.6 | 1.7 | 2.56 | 0.1 | 0.3 | 0.32 | 1.6 | 0.4 | 0.38

Reference: patent publication US20110263454A1, “Methods of Identifying Functional Characteristics of Promoters, Transcription Modifying Proteins and Transcription Modulating Agents” (Salk Institute for Biological Studies, priority 2008, published 2011)
